Results: the Human Domainome abundance scans (Beltran et al. 2025)

B1: V(D)J recombination-activating protein 2, residues 415 to 491; numbered along this chain, P55895 (parent)
chain: YWITCCPTCDVDINTWVPFYSTELNKPAMIYCSHGDGHWVHAQCMDLAERTLIHLSAGSNKYYCNEHVEIARALHTP

Variants of: B1
Experiment: abundance fitness (aPCA) (normalised: wild type 0, dead -1); higher = more abundant; growth selection in yeast, the domain comes from the species named
Conditions: Homo sapiens

Abundance fitness of substitutions, site by site:
Y31: C -0.039, E -0.018, I -0.649, K 0.041, L 0.005, P -0.245, G -0.337, A -0.193, R -0.04, H -0.061, W -0.193, F -0.061, N -0.322, V -0.241, D -0.28, T -0.197, S -0.188, M 0.004
L47: E -0.307, M 0.05, W -0.611, R -0.419, N -0.364, T -0.101, S -0.277, P -0.684, D -0.571, K -0.515, H -0.243, Y -0.508, V 0.034, G -0.458, C -0.081, F -0.133
V40: T -0.427, S -0.456, M -0.092, Q -0.626, F -0.852, W -1.16, G -0.744, I -0.081, K -0.316, R -0.65, D -0.555, N -0.633, L -0.043, A -0.288, Y -0.85, C -0.206
I30: K 0.147, R -0.322, L 0.122, G -0.644, M -0.219
T51: H 0.003, C -0.027, L 0.016, M -0.133, G -0.048, D -0.042, E -0.016, I -0.138, A -0.025, K 0.014, F -0.118, P -0.203, N -0.191
G35: L -0.042, R -0.374, I -0.07, A -0.164, E 0.068, Q -0.17, N 0.137, S -0.136, W -0.291, V -0.175, K 0.042
R50: V 0.069, F -0.04, P 0.1, L 0.013, E 0.039, W -0.195, G 0.036, C 0.106, S 0.092, H 0.037, I 0.067, D -0.027, M 0.015, T 0.049, K 0.015, Y -0.122, Q -0.032, N -0.215, A 0.094
S33: M -0.106, I -0.031, D 0.035, K -0.132, F -0.017, P -0.126, N -0.06, V -0.157, Q -0.091, E 0.036, L -0.095, A 0.069, R -0.147, C -0.057, H -0.116, G -0.065, W -0.072
C44: K -1.23, Q -0.969, V -1.11, F -0.952, S -0.998, L -0.806, W -0.98, Y -0.961, E -1.08, A -1.02, H -1.09, R -1.02, P -0.943, T -0.556, I -0.972, D -0.765, G -1.01, N -0.732, M -1.15
H38: A -0.986, V -0.776, N -0.689, Y -0.543
H34: C -0.309, M -0.046, L -0.073, E -0.085, Q 0.051, V -0.132, S -0.032, K -0.211, R -0.119, F -0.301, P -0.808, A -0.035, G -0.007, N -0.089, D -0.095, Y -0.101, T -0.234
M45: D -0.193, Y -0.296, H 0.058, L -0.291, K -0.202, N -0.016, W -0.431, G -0.43, C -0.181, F -0.231, V -0.217, I -0.615, Q 0.032, T -0.395, E -0.265, P -1.26
C32: N -0.85, H -0.804, W -0.861, G -1.17, T -0.99, V -0.746, S -0.683, F -0.946, R -0.967, K -1.09, Y -0.888, L -0.999, A -1.15, P -0.887, D -1.14
E49: A -0.056, Y -0.127, V -0.264, Q -0.019, S -0.243, W -0.292, F -0.149, K -0.279, L -0.124, P 0.023, R -0.368, C -0.201, N -0.183, T -0.345, I -0.468, M -0.168, D -0.038, G -0.295
A42: W -0.643, S -0.177, Y -0.626, I -0.563, K -0.411, D -0.762, Q -0.605, M -0.313, G -0.115, P -0.717, E -0.883, C -0.118, L -0.684, T -0.744
M29: S 0.208, E -0.421, G -0.377, A -0.575, I -0.234, L 0.072, C -0.532, R 0.055
G37: E -0.778, K -0.785, S -0.839, P 0.076
P27: H -0.741, S -0.958, V -0.668, R -0.973, L -0.861, Q -0.79
H41: Y -0.771, D -0.785, R -0.755
W39: T -0.197, Y 0.014, D -0.536, I -0.278, E -0.148, P -0.294, F -0.105, M -0.072, G -0.54, V -0.193, R -0.185, K -0.23, H -0.144, L -0.097, N -0.274, S -0.209, Q -0.176
D46: T 0.088, N 0.029, S 0.102, C 0.036, K 0.122, H -0.071, Q 0.085, Y -0.113, E -0.05, R 0.041, G -0.03, W -0.193, M 0.071, P -0.268, L 0.031, V 0.046, F -0.221
A48: G -0.078, S -0.066, L 0.001, H -0.226, W -0.04, Q 0.105, M -0.022, F -0.161, I 0.041, V -0.009, C -0.061, P 0.037, Y -0.092, D -0.044, E 0.013, N -0.339, T 0.026, R 0.023, K -0.011
Q43: A -0.397, R 0.129, E -0.344, P -0.771, M -0.048, T 0.107, L -0.196, S -0.174, V -0.116, G -0.203
D36: K -0.441, F -0.217, C -0.092, Q 0.055, N -0.211, G -0.04, P -0.011, T -0.62, S -0.149, R -0.246, A -0.177, Y -0.32, M -0.107, H -0.214
A28: L -0.094, D -0.318, E -0.172, V -0.155, Q -0.104, P -0.334, R -0.214, Y 0.009, T -0.218, K -0.112, H -0.23, F -0.183, C -0.117, S -0.035, G -0.775, W -0.116, M -0.213, N 0.078
